Measurements from publication PMC11188837 (mAbs, 2024).
No end group written: not given here. *: point of attachment. FITC = O=C1OC2(c3ccc(O)cc3Oc3cc(O)ccc32)c2ccc(NC(=S)*)cc21; Ahx = NCCCCCC(=O)O

Tests used:
[1] = biological target: integrin αVβ6 ectodomain (human) (human, UniProt P06756-1;P18564-1); assay: fluorescence polarisation
[2] = biological target: integrin αVβ8 ectodomain (human) (human, UniProt P06756-1;P26012-1); assay: fluorescence polarisation
integrin αVβ8 ectodomain (human), sequence (P06756 31-992, chain 1 of 2): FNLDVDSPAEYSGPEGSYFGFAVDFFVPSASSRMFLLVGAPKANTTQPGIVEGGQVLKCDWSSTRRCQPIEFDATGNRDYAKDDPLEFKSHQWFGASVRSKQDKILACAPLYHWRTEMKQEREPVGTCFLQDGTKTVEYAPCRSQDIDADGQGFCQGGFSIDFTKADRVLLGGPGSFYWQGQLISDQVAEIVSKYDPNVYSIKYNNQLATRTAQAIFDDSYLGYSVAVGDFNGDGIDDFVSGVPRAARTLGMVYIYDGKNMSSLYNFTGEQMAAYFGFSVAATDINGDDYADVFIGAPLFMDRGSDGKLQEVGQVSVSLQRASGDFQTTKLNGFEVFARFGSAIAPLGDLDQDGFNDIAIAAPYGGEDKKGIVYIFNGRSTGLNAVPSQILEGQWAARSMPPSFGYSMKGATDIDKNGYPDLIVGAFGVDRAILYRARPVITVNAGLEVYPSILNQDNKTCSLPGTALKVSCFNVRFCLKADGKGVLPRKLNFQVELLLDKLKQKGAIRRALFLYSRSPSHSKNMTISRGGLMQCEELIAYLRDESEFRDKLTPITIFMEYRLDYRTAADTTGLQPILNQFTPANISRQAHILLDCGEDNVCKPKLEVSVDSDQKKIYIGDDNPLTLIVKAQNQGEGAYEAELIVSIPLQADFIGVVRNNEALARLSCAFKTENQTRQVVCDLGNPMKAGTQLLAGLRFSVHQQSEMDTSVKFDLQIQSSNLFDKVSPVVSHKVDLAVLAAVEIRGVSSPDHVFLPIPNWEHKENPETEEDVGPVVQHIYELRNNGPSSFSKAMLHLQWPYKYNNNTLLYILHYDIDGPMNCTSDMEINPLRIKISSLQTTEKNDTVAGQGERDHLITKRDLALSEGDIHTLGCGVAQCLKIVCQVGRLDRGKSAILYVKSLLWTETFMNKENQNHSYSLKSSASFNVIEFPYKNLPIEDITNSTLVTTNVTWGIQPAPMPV
integrin αVβ8 ectodomain (human), sequence (P26012 43-684, chain 2 of 2): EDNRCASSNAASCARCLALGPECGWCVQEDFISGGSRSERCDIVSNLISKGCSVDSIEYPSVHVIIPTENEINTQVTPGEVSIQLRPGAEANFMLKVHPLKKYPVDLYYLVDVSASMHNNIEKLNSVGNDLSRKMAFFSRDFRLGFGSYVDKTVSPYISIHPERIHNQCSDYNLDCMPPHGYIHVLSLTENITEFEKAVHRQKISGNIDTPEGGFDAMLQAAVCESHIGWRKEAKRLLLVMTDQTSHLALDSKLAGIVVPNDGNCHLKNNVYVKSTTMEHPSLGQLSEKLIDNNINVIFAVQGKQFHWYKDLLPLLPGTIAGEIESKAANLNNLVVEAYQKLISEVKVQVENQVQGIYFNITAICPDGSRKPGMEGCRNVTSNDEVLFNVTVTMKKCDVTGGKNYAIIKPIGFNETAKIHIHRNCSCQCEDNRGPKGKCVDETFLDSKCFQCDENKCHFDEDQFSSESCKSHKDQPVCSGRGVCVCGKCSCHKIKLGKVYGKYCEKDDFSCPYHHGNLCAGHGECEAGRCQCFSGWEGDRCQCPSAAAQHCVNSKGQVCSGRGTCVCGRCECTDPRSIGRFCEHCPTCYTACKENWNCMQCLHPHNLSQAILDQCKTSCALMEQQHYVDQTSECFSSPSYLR

integrin αVβ6 ectodomain (human), sequence (P06756 31-992, chain 1 of 2): as the sequence (P06756 31-992, chain 1 of 2) above
integrin αVβ6 ectodomain (human), sequence (P18564 22-709, chain 2 of 2): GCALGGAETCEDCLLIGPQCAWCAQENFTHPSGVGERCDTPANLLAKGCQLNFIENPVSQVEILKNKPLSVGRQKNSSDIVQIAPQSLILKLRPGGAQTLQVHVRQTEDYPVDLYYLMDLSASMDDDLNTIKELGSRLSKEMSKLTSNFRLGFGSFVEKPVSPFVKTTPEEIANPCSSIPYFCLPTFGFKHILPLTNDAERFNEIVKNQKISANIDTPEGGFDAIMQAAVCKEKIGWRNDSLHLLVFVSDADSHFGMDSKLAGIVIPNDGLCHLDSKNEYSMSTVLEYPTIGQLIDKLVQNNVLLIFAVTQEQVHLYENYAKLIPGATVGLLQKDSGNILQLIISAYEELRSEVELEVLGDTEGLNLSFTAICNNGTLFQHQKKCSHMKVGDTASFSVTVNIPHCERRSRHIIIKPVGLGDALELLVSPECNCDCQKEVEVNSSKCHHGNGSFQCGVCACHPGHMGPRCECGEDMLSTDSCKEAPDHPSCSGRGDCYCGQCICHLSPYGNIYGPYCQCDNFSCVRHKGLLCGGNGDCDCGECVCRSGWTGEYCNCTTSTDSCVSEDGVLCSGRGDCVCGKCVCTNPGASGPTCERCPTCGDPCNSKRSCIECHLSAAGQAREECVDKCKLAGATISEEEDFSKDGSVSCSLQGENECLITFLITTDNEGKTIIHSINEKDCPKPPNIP

binding result [1]: binds | binding result [2]: binds
Binder: {FITC-Ahx}-GRGDLGRLKK [FITC-labeled aminocaproic acid-GRGDLGRLKK peptide]
